Changes are numbered by the printed parent chain. Like-named read-outs stand apart in the source and are kept apart here.

Test [1] addresses T1, heterodimer containing Delta1C and gamma 8, Fc-fusion protein (human).
T1 construct: the assay paragraph says only gamma 8; also called Delta1C/Gamma8; not shown: Fc portion of mouse IgG; AviTag; His6 tag
The test can be described thus: ELISA on gamma/delta TCR-Fc heterodimers immobilised on a microtiter plate, probed with the clone named over the panel (control panel: No Phage).

Test [2] has as its target T2, heterodimer containing Delta1C and gamma 3, Fc-fusion protein (human).
T2 construct: the assay paragraph says only gamma 3; also called Delta1C/Gamma3; not shown: Fc portion of mouse IgG; AviTag; His6 tag
Described as above.

Test [3] has as its target T3, γδ1 TCR containing the delta1C chain (human, biotinylated in vitro using recombinant BirA (AviTag)).
T3 construct: also called biotinylated TCR sample; gamma/delta1 TCR; not shown: Fc portion of mouse IgG; AviTag; His6 tag; TCR gamma chain fused to mouse IgG Fc
The test can be described thus: SPR (Pioneer, OneStep): biotinylated TCR immobilised on a neutravidin-loaded Avicap chip, IgG flowed; apparent KD.

Test [4] addresses T3, γδ1 TCR containing the delta1C chain. The description is as above. The source holds these as a separate data set.
Procedure: (§1) The affinity of the antibodies was assessed using surface plasmon resonance (SPR). A biotinylated TCR sample was immobilized on an Avicap chip (Pall ForteBio) that had been preloaded with neutravidin (ThermoFisher). IgG samples were flowed using the OneStep method on a Pioneer SPR instrument (Pall ForteBio).
The target of test [5] is T1, heterodimer containing Delta1C and …. The test can be described thus: ELISA on gamma/delta TCR-Fc heterodimers immobilised on a microtiter plate, probed with the clone named over the panel (control panel: No Phage). This is another data set of the same source. (In general: In an ELISA, binding on a coated surface is turned into a signal by an enzyme label.)
Test [6] has as its target T2, heterodimer containing Delta1C and …. The description is as above. The source holds these as a separate data set.
The target of test [7] is T3, γδ1 TCR containing the delta1C chain. The test can be described thus: SPR (Pioneer, OneStep): biotinylated TCR immobilised on a neutravidin-loaded Avicap chip, IgG flowed; apparent KD. This is another data set of the same source.
Procedure: as §1
In test [8] the target is T1, heterodimer containing Delta1C and …. The test can be described thus: ELISA on gamma/delta TCR-Fc heterodimers immobilised on a microtiter plate, probed with the clone named over the panel (control panel: No Phage). The source holds these as a separate data set.
The target in test [9] is T2, heterodimer containing Delta1C and …. The description is as above. This is another data set of the same source.
The target in test [10] is T1, heterodimer containing Delta1C and …. The test is described as above. This is another data set of the same source.
Test [11] addresses T2, heterodimer containing Delta1C and …. The description is as above. The source holds these as a separate data set.
In test [12] the target is T1, heterodimer containing Delta1C and …. The test is described as above. The source holds these as a separate data set.
The target of test [13] is T2, heterodimer containing Delta1C and …. Described as above. This is another data set of the same source.
Test [14] has as its target T3, γδ1 TCR containing the delta1C chain. Nature of the test: SPR (Pioneer, OneStep): biotinylated TCR immobilised on a neutravidin-loaded Avicap chip, IgG flowed; apparent KD. This is another data set of the same source.
Procedure: as §1
The target in test [15] is T1, heterodimer containing Delta1C and …. The test can be described thus: ELISA on gamma/delta TCR-Fc heterodimers immobilised on a microtiter plate, probed with the clone named over the panel (control panel: No Phage). This is another data set of the same source.
The target in test [16] is T2, heterodimer containing Delta1C and …. Described as above. This is another data set of the same source.
Test [17] addresses T3, γδ1 TCR containing the delta1C chain. Nature of the test: SPR (Pioneer, OneStep): biotinylated TCR immobilised on a neutravidin-loaded Avicap chip, IgG flowed; apparent KD. This is another data set of the same source.
Procedure: as §1
Test [18] shares this target. Described as above. The source holds these as a separate data set.
Procedure: as §1

T3 sequence (main, as listed by the source): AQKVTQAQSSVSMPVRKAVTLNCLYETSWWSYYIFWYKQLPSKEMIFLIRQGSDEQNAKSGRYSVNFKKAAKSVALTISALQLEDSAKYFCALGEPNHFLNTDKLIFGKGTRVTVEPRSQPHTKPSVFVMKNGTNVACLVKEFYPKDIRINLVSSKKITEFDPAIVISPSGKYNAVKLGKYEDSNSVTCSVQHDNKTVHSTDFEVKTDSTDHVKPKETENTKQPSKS
T2 sequence (V domain, as listed by the source, chain 1 of 2): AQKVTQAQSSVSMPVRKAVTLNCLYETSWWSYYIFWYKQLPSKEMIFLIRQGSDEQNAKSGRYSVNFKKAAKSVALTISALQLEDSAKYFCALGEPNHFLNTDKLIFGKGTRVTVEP
T2 sequence (V domain, as listed by the source, chain 2 of 2): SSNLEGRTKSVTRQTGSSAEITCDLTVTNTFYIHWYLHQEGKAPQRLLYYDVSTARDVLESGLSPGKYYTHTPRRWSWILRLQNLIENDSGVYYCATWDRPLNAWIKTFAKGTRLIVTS
T1 sequence (V domain, as listed by the source, chain 1 of 2): as the sequence (V domain, as listed by the source, chain 1 of 2) above
T1 sequence (V domain, as listed by the source, chain 2 of 2): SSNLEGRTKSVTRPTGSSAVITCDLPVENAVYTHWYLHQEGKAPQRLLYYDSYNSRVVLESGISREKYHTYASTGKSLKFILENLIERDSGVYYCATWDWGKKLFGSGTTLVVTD

B1: Delta 1-1 (antibody, V domains shown)
VH: EVQLVESGGGLVQPGGSLRLSCAASGFTVSSSSIHWVRQAPGKGLEWVASISSYYGYTSYADSVKGRFTISADTSKNTAYLQMNSLRAEDTAVYYCAREEWMSYWYWPRYYYYGMDYWGQGTLVTVSS
VL: DIQMTQSPSSLSASVGDRVTITCRASQSVSSAVAWYQQKPGKAPKLLIYSASSLYSGVPSRFSGSRSGTDFTLTISSLQPEDFATYYCQQAALMSPITFGQGTKVEIKR
notes: Tested by SPR as human IgG made in ExpiCHO cells
Consider B1, for which the binding result in test [1] and in [2] was “no binding” in each case. The Kd in [3] worked out at 10 nM.

B2: Delta 1-6 (antibody, V domains shown)
VH: EVQLVESGGGLVQPGGSLRLSCAASGFTVYSSSIHWVRQAPGKGLEWVASISPYSGSTSYADSVKGRFTISADTSKNTAYLQMNSLRAEDTAVYYCARMWYLSGWWTGDALDYWGQGTLVTVSS
VL: B1 VL with A91G, A92Y, L93Y, M94S, S95A, P96L
With B2, the Kd in test [4] worked out at 11 nM. Also, the binding result in test [5] and in [6] was “no binding” throughout.

B3: Delta 1-3 (antibody, V domains shown)
VH: EVQLVESGGGLVQPGGSLRLSCAASGFTLSSSSIHWVRQAPGKGLEWVASIYSSSGYTSYADSVKGRFTISADTSKNTAYLQMNSLRAEDTAVYYCARGLWSVWYYQFYSSMQGMDYWGQGTLVTVSS
VL: DIQMTQSPSSLSASVGDRVTITCRASQSVSSAVAWYQQKPGKAPKLLIYSASSLYSGVPSRFSGSRSGTDFTLTISSLQPEDFATYYCQQGYEYPLTFGQGTKVEIKR
notes: Tested by SPR as human IgG
With B3, the Kd in test [7] was 50 nM.

B4: Delta 1-8 (antibody, V domains shown)
VH: EVQLVESGGGLVQPGGSLRLSCAASGFTVSSSSIHWVRQAPGKGLEWVASIYSSSGYTYYADSVKGRFTISADTSKNTAYLQMNSLRAEDTAVYYCARPYYWYPYYYWSGGWEYAAFDYWGQGTLVTVSS
VL: B3 VL with G91Y, Y92G, L96I
As to B4, the binding result in [8] and in test [9] was “binds” each time.

B5: Delta 1-15 (antibody, V domains shown)
VH: EVQLVESGGGLVQPGGSLRLSCAASGFTFSSSSIHWVRQAPGKGLEWVASISSSSGSTSYADSVKGRFTISADTSKNTAYLQMNSLRAEDTAVYYCARYSWIYDSWWSGWAMDYWGQGTLVTVSS
VL: B3 VL with G91S, Y92S, E93S, Y94S, P95L, L96I
Consider B5, for which the binding result in [10] is recorded as “no binding”; in test [11], “binds”.

B6: Delta 1-17 (antibody, V domains shown)
VH: EVQLVESGGGLVQPGGSLRLSCAASGFTVSSSSIHWVRQAPGKGLEWVASIYSSSGYTYYADSVKGRFTISADTSKNTAYLQMNSLRAEDTAVYYCARDPGMYYWYYSGSAYEGYGLDYWGQGTLVTVSS
VL: B3 VL with G91S, Y92G, E93D, Y94D, P95L, L96I
notes: also called Delta1-17 IgG
As for B6, the binding result in test [12] and in test [13] was “binds” each time. Also, in [14], the Kd was determined as 7 nM.

B7: Delta 1-10 (antibody, V domains shown)
VH: EVQLVESGGGLVQPGGSLRLSCAASGFTFSSSSIHWVRQAPGKGLEWVASISSSSGSTSYADSVKGRFTISADTSKNTAYLQMNSLRAEDTAVYYCARSMVWYWGLNGYEEYAGGMDYWGQGTLVTVSS
VL: B3 VL with G91S, Y92S, E93S, Y94S, P95L, L96I
As for B7, the binding result in test [15] and in [16] was “no binding” throughout. In addition, the Kd in test [17] was 24 nM.

B8: Delta 1-13 (antibody, V domains shown)
VH: EVQLVESGGGLVQPGGSLRLSCAASGFTFSSSSIHWVRQAPGKGLEWVASISSSSGSTSYADSVKGRFTISADTSKNTAYLQMNSLRAEDTAVYYCARTTSYIDEYFGFGWYAMDYWGQGTLVTVSS
VL: B3 VL with G91S, Y92S, E93S, Y94S, P95L, L96I
Consider B8, for which, in [18], the Kd is 53 nM.

The values are drawn from patent US20200102388A1 (NEW YORK UNIVERSITY, published 2020).
